Measurements reported in paper PMC10750099, “Mapping immunological and host receptor binding determinants of SARS-CoV spike protein utilizing the Qubevirus platform” (The Journal of Biological Chemistry, 2023).

Biological target: T1, recombinant human angiotensin-converting enzyme 2 (human, UniProt Q9BYF1 18-740)
T1 construct: also called rhACE2; hACE2
Assay: phage display biopanning
Conditions: both partners purified

T1 sequence (Q9BYF1 18-740): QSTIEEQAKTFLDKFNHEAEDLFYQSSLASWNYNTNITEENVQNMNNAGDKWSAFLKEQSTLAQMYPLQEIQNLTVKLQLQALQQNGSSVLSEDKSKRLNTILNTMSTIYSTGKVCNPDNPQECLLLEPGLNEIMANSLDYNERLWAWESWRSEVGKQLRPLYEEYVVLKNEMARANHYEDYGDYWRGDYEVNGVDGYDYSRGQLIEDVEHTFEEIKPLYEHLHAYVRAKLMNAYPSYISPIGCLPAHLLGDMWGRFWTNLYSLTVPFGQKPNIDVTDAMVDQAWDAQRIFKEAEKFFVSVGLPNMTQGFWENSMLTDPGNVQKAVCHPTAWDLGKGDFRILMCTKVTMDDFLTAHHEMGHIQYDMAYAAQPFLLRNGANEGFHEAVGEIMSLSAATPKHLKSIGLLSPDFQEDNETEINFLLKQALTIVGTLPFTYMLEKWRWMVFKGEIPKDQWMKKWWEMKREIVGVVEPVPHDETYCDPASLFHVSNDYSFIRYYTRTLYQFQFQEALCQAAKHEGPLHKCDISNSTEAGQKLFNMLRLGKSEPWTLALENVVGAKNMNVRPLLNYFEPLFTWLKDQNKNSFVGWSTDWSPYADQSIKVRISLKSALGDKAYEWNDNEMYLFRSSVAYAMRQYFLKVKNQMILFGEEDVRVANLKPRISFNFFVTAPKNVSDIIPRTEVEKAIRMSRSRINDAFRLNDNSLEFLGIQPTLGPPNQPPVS

B1: recombinant Qβ phage QβF6 displaying SARS-CoV spike fragment F6 (S425-525) at the C terminus of the A1 minor coat protein (domain or fragment)
chain: not shown
notes: also called GF6; QF6
binding result: binds
